The data set concerns the molecule itself. The data set can be described thus: crystal structure; Vps75 (1-225) crystallised from the VAH preparation; sitting drop, 0.1 M sodium cacodylate pH 6.5, 25% PEG 4000; four monomers in the asymmetric unit, two tetrameric assemblies in the lattice.

B1: Vps75 (1–225) (domain or fragment, UniProt P53853 1-225, looked up)
chain: MMSDQENENEHAKAFLGLAKCEEEVDAIEREVELYRLNKMKPVYEKRDAYIDEIAEFWKIVLSQHVSFANYIRASDFKYIDTIDKIKVEWLALESEMYDTRDFSITFHFHGIEGDFKEQQVTKVFQIKKGKDDQEDGILTSEPVPIEWPQSYDSINPDLIKDKRSPEGKKKYRQGMKTIFGWFRWTGLKPGKEFPHGDSLASLFSEEIYPFCVKYYAEAQRDLED
notes: Vps75, yeast, residues 1-225 (C-terminally truncated), as crystallised; Crystallised from the Vps75-Asf1-H3-H4 preparation; only Vps75 is in the crystal; also called Vps75 tetramer; Vps75 (1-225) dimer
B1: the “stoichiometry N” value came to 4.

These data come from publication PMC5291247, “The histone chaperone Vps75 forms multiple oligomeric assemblies capable of mediating exchange between histone H3–H4 tetramers and Asf1–H3–H4 complexes” (Nucleic Acids Research, 2016).
